These are literature values, as cited in paper PMC5133818.

By Kd is commonly meant the equilibrium constant for the complex coming apart.

The data set concerns the target cytochrome c (Homo sapiens) (UniProt P99999). The experiment in a line: SPR.
Chain of UniProt P99999 (P99999 2-105): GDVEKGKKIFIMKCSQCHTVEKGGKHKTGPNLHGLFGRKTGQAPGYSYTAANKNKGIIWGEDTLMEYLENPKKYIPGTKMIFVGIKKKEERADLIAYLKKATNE

For the substance neuroglobin (from UniProt Q9NPG2), the dissociation constant Kd was 200 µM.
